From article PMC6630058 (Biotechnology Reports, 2019) come the findings set out here.

The target in the assay is Toxoplasma gondii major surface antigen 1 (SAG1) (Toxoplasma gondii, RH strain, UniProt P13664). Briefly: far-Western, overlay or dot blot.
Toxoplasma gondii major surface antigen 1 (SAG1), sequence (P13664 48-336): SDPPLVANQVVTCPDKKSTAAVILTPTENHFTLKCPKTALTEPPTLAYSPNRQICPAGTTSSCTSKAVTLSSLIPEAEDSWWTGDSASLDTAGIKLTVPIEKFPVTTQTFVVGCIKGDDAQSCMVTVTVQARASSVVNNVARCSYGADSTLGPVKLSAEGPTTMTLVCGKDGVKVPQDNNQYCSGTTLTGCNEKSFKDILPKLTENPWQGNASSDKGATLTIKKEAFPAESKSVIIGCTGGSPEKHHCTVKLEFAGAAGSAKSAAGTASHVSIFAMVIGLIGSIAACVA

B1: scFvSG15(VLT8P)-AP conjugate (scFvSG15-AP with T8P in FR-1 of the kappa VL) (scFv, V domains shown)
VH: QVQLQQSGAELVRPGVSVKISCKGSGYTFTDYGMHWVKQSHAKSLEWIGIISTYSGDASYNQKFKGKATMTVDKSSSTAYMELARLTSEDSAIYYCARSSTWYYFDYWGQGTTLTVSS
VL: DIQVTQTPSSLSASLGDRVTISCRASQDISNYLNWYQQKPDGTVKLLIYYTSRLHSGVPSRFSGSGSGTDYSLTISNLEQEDIATYFCQQGNTLPYTFGGGTKLEIK
In the case of B1, the binding result is “binds”.
